The supplement of paper PMC9732359
± gives the uncertainty stated by the source.

Experiment: protein stability index of a GFP-peptide fusion (yeast GPS) (PSI 1-4); higher = more stable; sorted into four equal gates, so the index is relative within each strain
Conditions: doa10∆
Procedure, shortened: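 Plasmids in a pooled yeast library fused tiled 17-residue yeast protein peptides downstream of GFP and also expressed Cherry. Mid-log cultures grown without leucine were sorted into four equal gates by GFP/Cherry fluorescence ratio. Each gate's plasmids were PCR-amplified and Illumina-sequenced, and reads were matched to strains by barcodes. The protein stability index is derived by multiplying each gate's read frequency by its gate number and summing the results.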
In the case of GVSLLIAGHDEFNGFSL [PRE8], the protein stability index is reported as 1.99 ± 0.18. Sequence GVSSPGFSPTSPTYSPT [RPO21] has a protein stability index of 2.82 ± 0.069. With GWKYEDVVAKLEAKRKV [RPL16A] the protein stability index was 2.78 ± 0.082. For GWLGALTMANLPSWSLG [ARP7], the protein stability index was 3.07 ± 0.078. GWPKLQLGPQTPAFNTA [ECM29] gave a protein stability index of 1.43 ± 0.21. For GYDPALLNILSGLPTCD [RPN2], the protein stability index was 2.79 ± 0.083. Work on GYDPIVSTRAIDLLWKG [PRP28] yielded a protein stability index of 2.12 ± 0.18. GYFGKVGMRYFHKQQAH [RPL28] showed a protein stability index of 2.6 ± 0.14. In the case of GYLDDSEILIISSLMFD [IRR1], the protein stability index is reported as 2.79 ± 0.071. Sequence GYSGYGNGITNTTTRVI [SNF5] has a protein stability index of 3.64 ± 0.2. For HAADSQNNKPSFVFGQA [YLR335W/NUP2], the protein stability index was 2.91 ± 0.11. HAIIIFGYPETIANSII [YMR153W/NUP53] showed a protein stability index of 1.91 ± 0.078. For HCEDKDYKTAFSYFFES [RPN6], the protein stability index was 2.77 ± 0.081. With HDAIFSIYKYIHLNELL [SNF12] the protein stability index was 2.31 ± 0.051. Work on HEDEKLIPTIFRYITTW [PRP8] yielded a protein stability index of 2.6 ± 0.06. With HEFFIANHDDQDDIDEM [SRP68] the protein stability index was 3.12 ± 0.056. For HEFTLSFTYELKQHNQN [BRR2], the protein stability index was 1.98 ± 0.074. Sequence HEILSEPAIEEENGDSI [MED1] has a protein stability index of 2.98 ± 0.17. With HELREKERISVAAASKI [PRE2] the protein stability index was 2.67 ± 0.061. Work on HELSSSHTSLVKIGKFI [SRB8] yielded a protein stability index of 1.8 ± 0.042. HETTFMTAMRLMLKKLK [YML031W/NDC1] gave a protein stability index of 1.21 ± 0.097. In the case of HFGHCFNITDNGVRALF [GRR1], the protein stability index is reported as 2.07 ± 0.18. Work on HFTSPIRRYCDVVAHRQ [DIS3] yielded a protein stability index of 2.04 ± 0.082. In the case of HGMFSSASVRALIENWA [FAS1], the protein stability index is reported as 1.48 ± 0.11. In the case of HGNLASCHGHFGHLKLA [RPO31], the protein stability index is reported as 1.48 ± 0.06. In the case of HHRDSNFPDEDDDDSRK [SKP1], the protein stability index is reported as 3 ± 0.18. In the case of HHYEECAERVKIQQQQP [QCR6], the protein stability index is reported as 3.25 ± 0.12. In the case of HILRISFLDRKRAKEFI [SIN4], the protein stability index is reported as 2.42 ± 0.079. Work on HISFNFSMLQMAFEASA [BRR2] yielded a protein stability index of 1.42 ± 0.075. For HIVYSLLVNPDIDLETY [YML103C/NUP188], the protein stability index was 2.52 ± 0.049. HKQVYPLRMETIPILES [DSN1] showed a protein stability index of 1.73 ± 0.049. Sequence HLLIKIIRQLSELNEGN [SRB8] has a protein stability index of 2.8 ± 0.097. Sequence HLLPRNEWIKAQEDVPY [QCR7] has a protein stability index of 2.31 ± 0.072. HLLVKQGDGLLTKLQKY [RPN7] showed a protein stability index of 2.97 ± 0.13. Work on HLLYPPHIIAVACLFIT [SSN8] yielded a protein stability index of 1.26 ± 0.053. With HLNHYILLRYHHNDISN [YCG1] the protein stability index was 1.23 ± 0.088. In the case of HLSTYLKVYKVGDIVDI [RPL21A], the protein stability index is reported as 1.22 ± 0.075. Work on HLVELLLVFRNADLDLD [YDL116W/NUP84] yielded a protein stability index of 3.17 ± 0.12. In the case of HLVSNELEQLSSEALEA [RPL10], the protein stability index is reported as 1.21 ± 0.053. Work on HMMKRWGYQMVWAPTQK [POP1] yielded a protein stability index of 2.15 ± 0.054. For HNAKNGTLDKNSQTVSG [SNF2], the protein stability index was 1.98 ± 0.13. Work on HNGREGSIEEPELNVSL [MCD1] yielded a protein stability index of 3.31 ± 0.3. Work on HPIMETIVNDSNYDWLF [RPN9] yielded a protein stability index of 2.42 ± 0.058. Work on HPYLFEGAEPGPPYTTD [ISW2] yielded a protein stability index of 3.04 ± 0.06. HQHIGKASTISRGAVSG [RPL2A] gave a protein stability index of 2.55 ± 0.043. Sequence HQPITSEQKMKEDADLK [SIR4] has a protein stability index of 2.88 ± 0.058. With HQSLGPDGLGEVGMKVQ [RET1] the protein stability index was 2.7 ± 0.16. HRQEIFKDSPMDLFMST [GAL11] gave a protein stability index of 2.85 ± 0.089. For HSFIKMLQMKGKLLRNY [SIR2], the protein stability index was 2.19 ± 0.09. In the case of HTSSGSVSFKVFLLLQA [BRR2], the protein stability index is reported as 1.79 ± 0.042. Work on HVRCGTAFALGIACAGK [RPN2] yielded a protein stability index of 1.27 ± 0.081.
